“Also recorded” adds a separate entry of the source.
T1: GM-CSF (Mus musculus, UniProt P01587)
T1 construct: purchased Peprotech
T1 sequence (P01587 18-141): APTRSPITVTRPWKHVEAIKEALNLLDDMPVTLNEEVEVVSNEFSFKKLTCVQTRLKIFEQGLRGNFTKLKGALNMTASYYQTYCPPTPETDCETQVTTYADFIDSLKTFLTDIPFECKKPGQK


Key:
neural stem cells [1] = experiment: rapid differentiation protocol of neural stem cells, immunostaining for O4, GalC and MBP; format: cell-based, mouse; conditions: for % positive cells, GalC / % positive cells, MBP / % positive cells, O4: 20 ng/ml factor in MHM
Experimental: To determine the effect of GM-CSF on neural stem cell differentiation, a culture of neural stein cells was prepared from mouse embryos and subjected to a rapid differentiation protocol. Embryonic Day 14 (E14) mouse ganglionic eminence was dissected and grown in media hormone mix (MHM) plus 20 ng/ml epidermal growth factor (EGF) for one week to generate primary neurospheres. The composition of MHM was as follows: • DMEM/F12 (1:1) • glucose (0.6%) • glutamine (2 mM) • sodium bicarbonate ([…]) • HEPES (5 mM) • insulin (25 μg/ml • transferrin (100 μg/ml) • progesterone (20 nM) • putrescine (60 μM) • selenium chloride (30 nM)
Primary neurospheres were then dissociated and plated on poly-L-ornithine coated coverslips in 24-well plates at a density of 200,000 cells/ml in 1 ml of MHM per well. Cells were allowed to differentiate in the absence or presence of 20 ng/ml GM-CSF (murine recombinant GM-CSF, Peprotech) in MHM or 20 ng/ml of triiodothyronine (T3, Sigma) in MHM, or in a combination of both GM-CSF and T3. T3 is a known oligodendrocyte differentiation factor, which was used to compare GM-CSF in these experiments.
After 1, 3 or 5 days, the cells were fixed with 4% paraformaldehyde. […] After staining, the numbers of O4-positive, GalC-positive and MBP-positive cells were counted. The total number of cells were determined using Hoechst staining and live nuclei morphology under 40× magnification. This experiment was performed four times, and 10 non-overlapping fields per coverslip were counted each time. Statistical analyses of the results were performed using Anova with a Tukey-Honest post-hocs analysis.

[2] = system: maturing oligodendrocytes; experiment: dying maturing oligodendrocytes (GalC+, TUNEL+ cells); format: cell-based, mouse; conditions: 1, 3 or 5 days in differentiation media, FIG. 2
Experimental: The survival effects of GM-CSF on oligodendrocytes were examined with two lines of experiments. In the first line of experiments, neural stem cells were cultured as described in Example 1 in the presence or absence of GM-CSF or T3, and were fixed after 1, 3 or 5 days of culture in differentiation media. The fixed cells were immunostained for the maturing oligodendrocyte marker GalC and TUNEL, which is a marker of dying cells. The numbers of dicing, maturing oligodendrocytes (GalC+, TUNEL+cells) were then counted and their percentage in total GalC+cells are shown in FIG. 2.

[3] = system: differentiating neural stem cells; experiment: Survival Assay: factor added or removed at different times, MBP staining; format: cell-based, mouse; design: MBP + cells after 5DIV: unit not given here; conditions: for dependence of oligodendrocyte numbers on length of time the factor is present: summary of Table 2, MBP after 5 DIV
Experimental: In the second line of experiments, GM-CSF ,as given to differentiating neural stem cells at different times. Thus, neural stem cell culture was placed in differentiation media as described in Example 1, and GM-CSF was added after 24 or 48 hours, or added in the beginning but removed after 24 or 48 hours. Similarly, T3 was added or removed in the same manner in parallel experiments. The cells were fixed after 5 days in vitro and immunostained with the mature oligodendrocyte marker MBP.

[4] = system: E14 ganglionic eminence cells; experiment: total cell number of primary neural stem cell culture; format: cell-based, mouse; conditions: MHM plus EGF plus factor, 1 week, versus MHM plus EGF, FIG. 3
Experimental: To assess the effect of GM-CSF on proliferation of neural stem cells, the number of cells generated in neurosphere cultures, prepared according to Example 1, was counted when grown for 1 week in various culture media. Thus, E14 ganglionic eminence cells were grown at a density of 200,000 cells/ml in 40 ml of media for 1 week. The media were MHM plus EGF, MHM plus EGF and GM-CSF, or MHM plus EGF and T3. Spheres were then collected, dissociated and cells were counted with a hemacytometer. The cell numbers were calculated as percentages of the control (MHM plus EGF).

[5] = system: E14 mouse ganglionic eminence cells; experiment: primary neurosphere numbers; format: cell-based; conditions: MHM plus EGF plus factor, 20 ng/ml, 1 week, FIG. 4
Experimental: The effect of GM-CSF on primary neurosphere numbers was also examined by growing cells from E14 mouse ganglionic eminence in MHM plus EGF, MHM plus EGF plus GM-CSF, or MHM plus EGF plus T3, all at concentrations of 20 ng/ml. Thus, E14 mouse ganglionic eminence cells were dissociated and plated in 96well plates at a density of 10,000 cells/ml in 200 μl of media per well, and allowed to form primary neurospheres for a week. The number of primary spheres in each well as then counted and the aforementioned statistical analysis as performed.

[6] = system: EGF-responsive neural stem cells; experiment: secondary neurosphere numbers (self-expansion); format: cell-based, mouse; conditions: FIG. 5; for number of secondary neurospheres: factor in secondary neurosphere media, primary spheres grown in EGF; for formation of secondary spheres: factor included in the media for primary neurospheres
Experimental: Furthermore, the effect of GM-CSF on self-expansion, proliferation of secondary neurospheres derived from primary neurospheres, was also assessed. Three media were used in the preparation of primary spheres: MHM plus EGF, MHM plus EGF plus GM-CSF and MHM plus EGF plus T3. The primary, spheres were dissociated, plated in 96-well plates at a concentration of 1000 cells/well in 200μL media per well, and allowed to form secondary neurospheres for a week. The media for secondary cultures consisted of MHM plus EGF alone, MHM plus GM-CSF or T3 alone, or MHM plus EGF supplemented with GM-CSF or T3. The number of secondary spheres in each well was then counted, calculated as percentage of control (EGF to EGF).

neural stem cells [7] = experiment: fate determination analysis (MBP+ and β-tubulin+ cells); format: cell-based, mouse; conditions: primary spheres generated in EGF plus factor, differentiated 5 days, FIG. 6
Experimental: To determine if the presence of GM-CSF during primary neurosphere formation impacts fate determination of neural stem cells, primary neurospheres were generated in either EGF alone, EGF plus GM-CSF, or EGF plus T3 as described in Example 3. The primary spheres were then dissociated and plated on poly-L-ornithine coated coverslips in 24-well plates at a density of 200,000 cells/well in 1 ml of MHM per well, and allowed to differentiate for 5 days. At the end the differentiation period, the cells were fixed with 4% paraformaldehyde and immunostained for the mature oligodendrocyte marker MBP, the neuronal marker β-tubulin, and Hoechst. The total number of live cells, evidenced by Hoechst stain, were counted as well as the immunostained cells.

[8] = McLay et al., 1997; cited from earlier work
GM-CSF = target: T1, GM-CSF; experiment: rapid differentiation protocol with GM-CSF with or without soluble GM-CSF receptor alpha; format: cell-based; conditions: 100-fold excess of sGMRa, 5 days in vitro, FIG. 1
Experimental: A rapid differentiation protocol was performed, as described above, in the absence or presence of GM-CSF, with or without a 100-fold excess of sGMRa. After 5 days in vitro, the cells were fixed, immunostained with the mature oligodendrocyte marker MBP and counted as previously described.

[9] = immature oligodendrocyte marker O4, 1 DIV
[10] = mature oligodendrocyte marker MBP, 1 DIV
[11] = maturing oligodendrocyte marker GalC, 1 DIV

Row | Molecule | % positive cells, GalC (neural stem cells [1]; GalC, 3 DIV) [%] | % positive cells, GalC (neural stem cells [1]; GalC, 5 DIV) [%] | % positive cells, MBP (neural stem cells [1]; MBP, 3 DIV) [%] | % positive cells, MBP (neural stem cells [1]; MBP, 5 DIV) [%] | % positive cells, O4 (neural stem cells [1]; O4, 3 DIV) [%] | % positive cells, O4 (neural stem cells [1]; O4, 5 DIV) [%] | % positive cells, O4 (neural stem cells [1]; [9]) [%] | % positive cells, MBP (neural stem cells [1]; [10]) [%] | % positive cells, GalC (neural stem cells [1]; [11]) [%] | number of dying GalC+ cells (GalC+, TUNEL+ in total GalC+ cells) [2] | MBP + cells after 5DIV ([3]; factor added after 24 hours) | MBP + cells after 5DIV ([3]; factor added after 48 hours) | MBP + cells after 5DIV ([3]; factor present for 5 DIV) | MBP + cells after 5DIV ([3]; factor removed after 24 hours) | MBP + cells after 5DIV ([3]; factor removed after 48 hours) | dependence of oligodendrocyte numbers on length of time the factor is present [3] | total cell number in the neural stem cell culture [4] | ability of neural stem cells to form primary neurospheres [5] | number of secondary neurospheres [6] | formation of secondary spheres [6] | further results
1 | N[C@@H](Cc1cc(I)c(Oc2ccc(O)c(I)c2)c(I)c1)C(=O)O [T3, triiodothyronine, reference compound] | 15.3 ± 1.5 | 11.1 ± 0.9 | 13.9 ± 1.1 | 17.2 ± 1.6 | 35.9 ± 1.7 | 19.9 ± 1.5 | 18.2 ± 1.2 | 1.6 ± 0.4 | 8.0 ± 0.8 | only minor survival effects, if any | 14.8 ± 1.5 | 12.0 ± 1.1 | 13.9 ± 1.1 | 15.5 ± 1.1 | 13.8 ± 1.1 | did not chance regardless of the length of time | reduces | neither GM-CSF nor T3 have significant effects | decreased | detrimental | number of mature oligodendrocytes (MBP+ cells) (neural stem cells [7]): increased; number of neurons (β-tubulin+ cells) (neural stem cells [7]): decreased
2 | GM-CSF: murine recombinant GM-CSF, Peprotech (protein, UniProt P01587 18-141, looked up) Granulocyte-macrophage …: APTRSPITVTRPWKHVEAIKEALNLLDDMPVTLNEEVEVVSNEFSFKKLTCVQTRLKIFEQGLRGNFTKLKGALNMTASYYQTYCPPTPETDCETQVTTYADFIDSLKTFLTDIPFECKKPGQK | 7.4 ± 0.8 | 7.9 ± 1.0 | 8.1 ± 0.9 | 12.2 ± 1.3 | 25.7 ± 1.5 | 9.6 ± 1.0 | 16.6 ± 1.2 | 1.2 ± 0.3 | 4.1 ± 0.6 | significantly reduced | 8.1 ± 0.9 | 3.9 ± 0.6 | 8.0 ± 0.8 | 5.4 ± 1.0 | 9.7 ± 1.0 | required for an extended period of time | slightly increased | neither GM-CSF nor T3 have significant effects | does not significantly affect | detrimental | percentage of oligodendrocytes produced from neural stem cells (neural stem cells [1]; every stage of oligodendrocyte development, versus control): significantly increased; also recorded: increased by several folds; number of mature oligodendrocytes (MBP+ cells) (neural stem cells [7]): increased; number of neurons (β-tubulin+ cells) (neural stem cells [7]): decreased; crossing the blood-brain barrier [8]: capable of crossing the blood-brain barrier
3 | sGMRa: GM-CSF receptor alpha (sGMRa), a soluble factor that binds GM-CSF (protein, UniProt P15509 23-320, looked up, extracellular domain) extracellular domain: EKSDLRTVAPASSLNVRFDSRTMNLSWDCQENTTFSKCFLTDKKNRVVEPRLSNNECSCTFREICLHEGVTFEVHVNTSQRGFQQKLLYPNSGREGTAAQNFSCFIYNADLMNCTWARGPTAPRDVQYFLYIRNSKRRREIRCPYYIQDSGTHVGCHLDNLSGLTSRNYFLVNGTSREIGIQFFDSLLDTKKIERFNPPSNVTVRCNTTHCLVRWKQPRTYQKLSYLDFQYQLDVHRKNTQPGTENLLINVSGDLENRYNFPSSEPRAKHSVKIRAADVRILNWSSWSEAIEFGSDDG |  |  |  |  |  |  |  |  |  |  |  |  |  |  |  |  |  |  |  |  | effect of GM-CSF on MBP+ cells (GM-CSF): specifically inhibited
